CN116693678A

Key:
[1] = molecular target: 肺炎支原体天然抗原(购自Microbix) (Mycoplasma pneumoniae); experiment: indirect ELISA on coated antigen (2 ug/ml), antibody 0.46 ng/ml
[2] = molecular target: 肺炎支原体天然抗原(购自Microbix) (Mycoplasma pneumoniae); experiment: indirect ELISA on coated antigen (2 ug/ml), antibody 12.35 ng/ml
[3] = molecular target: 肺炎支原体天然抗原(购自Microbix) (Mycoplasma pneumoniae); experiment: indirect ELISA on coated antigen (2 ug/ml), antibody 0.15 ng/ml
[4] = molecular target: 肺炎支原体天然抗原(购自Microbix) (Mycoplasma pneumoniae); experiment: indirect ELISA on coated antigen (2 ug/ml), antibody 1.37 ng/ml
[5] = molecular target: 肺炎支原体天然抗原(购自Microbix) (Mycoplasma pneumoniae); experiment: indirect ELISA on coated antigen (2 ug/ml), antibody 4.12 ng/ml
[6] = molecular target: 肺炎支原体天然抗原(购自Microbix) (Mycoplasma pneumoniae); experiment: indirect ELISA on coated antigen (2 ug/ml), antibody 0 ng/ml (blank well)

对照 (antibody) showed an OD值 (450nm, 参考630nm) [1] of 0.111 OD, an OD值 (450nm, 参考630nm) [2] of 1.21 OD and an OD值 (450nm, 参考630nm) [3] of 0.068 OD. It also gave an OD值 (450nm, 参考630nm) [4] of 0.208 OD, an OD值 (450nm, 参考630nm) [5] of 0.499 OD and an OD值 (450nm, 参考630nm) [6] of 0.015 OD.

B1: Anti-MP-11F5mut1 (antibody, mouse IgG1, kappa, V domains shown)
VH: QVQLQQSGPELVKPGALVKISCKASGYTFTSFDINWVKQRPGQGLEWIGYIYPGDGSTKYNEKFKGKATLTADKSSSTAYMQFSSLTSENSAVYFCTRKGGWGAGHSAMDYWGQGTSVTVSS
VL: DIQMTQTTSSLSASLGDRVTISCRASQAIGNYLNWYQQRPDGTVKLLIYYTSRKNSGAPSRFSGSGSGTDYSITISNLDQEDIATYFCQQGYTTPYTFGGGTKLEIKR
B1 gave an OD值 (450nm, 参考630nm) [1] of 0.201 OD, an OD值 (450nm, 参考630nm) [2] of 1.89 OD and an OD值 (450nm, 参考630nm) [3] of 0.156 OD. The OD值 (450nm, 参考630nm) [4] was 0.295 OD, the OD值 (450nm, 参考630nm) [5] was 0.815 OD and the OD值 (450nm, 参考630nm) [6] was 0.038 OD.

B2: Anti-MP-11F5mut4 (antibody, mouse IgG1, kappa, V domains shown)
VH: QVQLQQSGPELVKPGALVKISCKASGYTFTSFDINWVKQRPGQGLEWIGYIYPGDGSTKYNEKFKGKATLTADKSSSTAYMQFSSLTSENSAVYFCTRKGGWGAGHSAMDYWGQGTSVTVSS
VL: DIQMTQTTSSLSASLGDRVTISCRASQAISNYINWYQQRPDGTVKLLIYYTSRKNSGAPSRFSGSGSGTDYSLTISNLDQEDIATYFCQQGYTTPYTFGGGTKLEIKR
B2 was tested, and the OD值 (450nm, 参考630nm) [1] was 0.49 OD, the OD值 (450nm, 参考630nm) [2] was 1.96 OD and the OD值 (450nm, 参考630nm) [3] was 0.374 OD. It also gave an OD值 (450nm, 参考630nm) [4] of 1.26 OD, an OD值 (450nm, 参考630nm) [5] of 1.92 OD and an OD值 (450nm, 参考630nm) [6] of 0.042 OD.

B3: Anti-MP-11F5mut5 (antibody, mouse IgG1, kappa, V domains shown)
VH: QVQLQQSGPELVKPGALVKISCKASGYTFTSFDINWVKQRPGQGLEWIGYIYPGDGSTKYNEKFKGKATLTADKSSSTAYMQFSSLTSENSAVYFCTRKGGWGAGHSAMDYWGQGTSVTVSS
VL: DIQMTQTTSSLSASLGDRVTISCRASQAISNYLNWYQQRPDGTVKLLIYYTSRKNSGAPSRFSGSGSGTDYSLTISNIDQEDIATYFCQQGYTTPYTFGGGTKLEIKR
For B3, the OD值 (450nm, 参考630nm) [1] was 0.241 OD, the OD值 (450nm, 参考630nm) [2] was 2.02 OD and the OD值 (450nm, 参考630nm) [3] was 0.163 OD. It also gave an OD值 (450nm, 参考630nm) [4] of 0.316 OD, an OD值 (450nm, 参考630nm) [5] of 0.837 OD and an OD值 (450nm, 参考630nm) [6] of 0.038 OD.

B4: Anti-MP-11F5mut6 (antibody, mouse IgG1, kappa, V domains shown)
VH: QVQLQQSGPELVKPGALVKISCKASGYTFTSFDINWVKQRPGQGLEWIGYIYPGDGSTKYNEKFKGKATLTADKSSSTAYMQFSSLTSEDSAVYFCTRKGGWGAGHSAMDYWGQGTSVTVSS
VL: DIQMTQTTSSLSASLGDRVTISCRASQAISNYINWYQQRPDGTVKLLIYYTSRKNSGAPSRFSGSGSGTDYSLTISNLDQEDIATYFCQQGYTTPYTFGGGTKLEIKR
B4 gave an OD值 (450nm, 参考630nm) [1] of 0.276 OD, an OD值 (450nm, 参考630nm) [2] of 1.92 OD and an OD值 (450nm, 参考630nm) [3] of 0.174 OD. For the same molecule, the OD值 (450nm, 参考630nm) [4] was 0.445 OD, the OD值 (450nm, 参考630nm) [5] was 0.85 OD and the OD值 (450nm, 参考630nm) [6] was 0.063 OD.

B5: Anti-MP-11F5mut7 (antibody, mouse IgG1, kappa, V domains shown)
VH: QVQLQQSGPELVKPGALVKISCKASGYTFTSFDINWVKQRPGQGLEWIGYIYPGDGSTKYNEKFKGKATLTADKSSSTAYMQFSSLTSENSAVYFCTRKGGWGAGHSAMDYWGQGTSVTVSS
VL: DIQMTQTTSSLSASLGDRVTISCRASQAISNYINWYQQRPDGTVKLLIYYTSRKNSGAPSRFSGSGSGTDYSLTISNIDQEDIATYFCQQGYTTPYTFGGGTKLEIKR
B5 was tested, and the OD值 (450nm, 参考630nm) [1] was 0.4 OD, the OD值 (450nm, 参考630nm) [2] was 1.91 OD and the OD值 (450nm, 参考630nm) [3] was 0.365 OD. For the same molecule, the OD值 (450nm, 参考630nm) [4] was 0.643 OD, the OD值 (450nm, 参考630nm) [5] was 1.51 OD and the OD值 (450nm, 参考630nm) [6] was 0.032 OD.

B6: Anti-MP-11F5mut8 (antibody, mouse IgG1, kappa, V domains shown)
VH: QVQLQQSGPELVKPGALVKISCKASGYTFTSFDINWVKQRPGQGLEWIGYIYPGDGSTKYNEKFKGKATLTADKSSSTAYMQFSSLTSEDSAVYFCTRKGGWGAGHSAMDYWGQGTSVTVSS
VL: DIQMTQTTSSLSASLGDRVTISCRASQAISNYINWYQQRPDGTVKLLIYYTSRKNSGAPSRFSGSGSGTDYSLTISNIDQEDIATYFCQQGYTTPYTFGGGTKLEIKR
Molecule B6 has an OD值 (450nm, 参考630nm) [1] of 0.56 OD, an OD值 (450nm, 参考630nm) [2] of 1.93 OD and an OD值 (450nm, 参考630nm) [3] of 0.489 OD. It also gave an OD值 (450nm, 参考630nm) [4] of 1.27 OD, an OD值 (450nm, 参考630nm) [5] of 1.64 OD and an OD值 (450nm, 参考630nm) [6] of 0.034 OD.
